Earlier results, collected in US20050107320A1, “Methods and compositions for use in interventional pharmacogenomics” (priority 2003, published 2005).

Assays:
[1] = administered systemically

With “EPO: glycoprotein hormone involved in the growth and maturation of erythroid progenitor cells into erythrocytes” as the substance, how does the clinical tolerability read?
The clinical tolerability was “well tolerated clinically”.

And the “crossing of the blood-brain barrier” value [1]?
The value was “can cross the blood-brain barrier”.
